Residue numbers refer to the chain shown, from its start. Numbers in names are those of the source.
B1: biotinylated recombinant wild-type DP4 (extracellular domains of DPA1*01:03 and wild-type DPB1*04:01 with leucine zippers) (peptide-MHC)
MHC II alpha: IKADHVSTYAAFVQTHRPTGEFMFEFDEDEMFYVDLDKKETVWHLEEFGQAFSFEAQGGLANIAILNNNLNTLIQRSNHTQATNDPPEVTVFPKEPVELGQPNTLICHIDKFFPPVLNVTWLCNGELVTEGVAESLFLPRTDYSFHKFHYLTFVPSAEDFYDCRVEHWGLDQPLLKHWEAQEPIQMPETTETGGGGSLEIRAAFLRQRNTALRTEVAELEQEVQRLENEVSQYETRYGPLGGGKGSHHHHHHHHHH
MHC II beta: RATPENYLFQGRQECYAFNGTQRFLERYIYNREEFARFDSDVGEFRAVTELGRPAAEYWNSQKDILEEKRAVPDRMCRHNYELGGPMTLQRRVQPRVNVSPSKKGPLQHHNLLVCHVTDFYPGSIQVRWFLNGQEETAGVVSTNLIRNGDWTFQILVMLEMTPQQGDVYTCQVEHTSLDSPVTVEWKAQSDSARSKGGGGSLEIEAAFLERENTALETRVAELRQRVQRLRNRVSQYRTRYGPLGGGKGSGLNDIFEAQKIEWHE
notes: also called biotinylated wild-type DP4 (ligand)
B2: biotinylated recombinant DP4^L112W/V141M (extracellular domains of DPA1*01:03 and DPB1*04:01 L112W/V (peptide-MHC)
MHC II alpha: B1 MHC II alpha
MHC II beta: B1 MHC II beta with L112W, V141M
notes: also called DPR^L112/V141M; biotinylated DP4^L112W/V141M (ligand)

How the values were obtained:
[1] = target: T1, recombinant 10x His-tagged CD4 protein (extracellular domain of human CD4, GS linker, 10x histidine tag) (human, UniProt P01730 26-390); assay: biolayer interferometry
T1 construct: also called recombinant CD4; sCD4 (analyte)

[2] = target: T1, recombinant 10x His-tagged CD4 protein …; assay: biolayer interferometry KD against the previously estimated KD >2 mM between CD4 and HLA class II
[3] = target: T1, recombinant 10x His-tagged CD4 protein …; assay: biolayer interferometry (Octet Red), biotinylated DP4 on streptavidin sensors, CD4 as analyte, steady-state analysis

Binder | binding result [1] | fold improvement in the binding affinity [2] | Kd [3]
B1 | no binding (tested: 26 µM) |  | 
B2 |  | ≥ 200 fold | 8.9 µM
